The supplement of paper PMC11246515
± gives the standard deviation of the averaged measurements.

Test: total protein half-life in vivo (active degradation + dilution); higher = more stable protein
[1] = E. coli NCM3722 delta-clpP delta-lon delta-hslV, growth: N-lim chemostat, doubling time 6 h
[2] = wild type E. coli NCM3722, growth: C-lim chemostat, doubling time 6 h
[3] = wild type E. coli NCM3722, growth: C-lim chemostat, doubling time 12 h
[4] = wild type E. coli NCM3722, growth: N-lim chemostat, doubling time 6 h
[5] = E. coli NCM3722 delta-clpP, growth: N-lim chemostat, doubling time 6 h
[6] = E. coli NCM3722 delta-hslV, growth: N-lim chemostat, doubling time 6 h
[7] = E. coli NCM3722 delta-lon, growth: N-lim chemostat, doubling time 6 h
[8] = E. coli NCM3722 delta-smpB, growth: N-lim chemostat, doubling time 6 h
[9] = wild type E. coli NCM3722, growth: C-lim chemostat, doubling time 3 h
[10] = wild type E. coli NCM3722, growth: N-lim chemostat, doubling time 12 h
[11] = wild type E. coli NCM3722, growth: P-lim chemostat, doubling time 6 h
[12] = wild type E. coli NCM3722, growth: P-lim chemostat, doubling time 12 h

Row | Sequence | total protein half-life in vivo [1] | total protein half-life in vivo [2] | total protein half-life in vivo [3] | total protein half-life in vivo [4] | total protein half-life in vivo [5] | total protein half-life in vivo [6] | total protein half-life in vivo [7] | total protein half-life in vivo [8] | total protein half-life in vivo [9] | total protein half-life in vivo [10] | total protein half-life in vivo [11] | total protein half-life in vivo [12]
1 | MSLHSPGKAFRAALTKENPLQIVGTINANHALLAQRAGYQAIYLSGGGVAAGSLGLPDLGISTLDDVLTDIRRITDVCSLPLLVDADIGFGSSAFNVARTVKSMIKAGAAGLHIEDQVGAKRCGHRPNKAIVSKEEMVDRIRAAVDAKTDPDFVIMARTDALAVEGLDAAIERAQAYVEAGAEMLFPEAITELAMYRQFADAVQVPILANITEFGATPLFTTDELRSAHVAMALYPLSAFRAMNRAAEHVYNVLRQEGTQKSVIDTMQTRNELYESINYYQYEEKLDNLFARSQVK | 3.59 ± 0.66 h | 4.13 ± 0.31 h | 5.82 ± 0.58 h | 4.7 h |  |  |  |  |  |  |  | 
2 | MSLISMHGAWLSFSDAPLLDNAELHIEDNERVCLVGRNGAGKSTLMKILNREQGLDDGRIIYEQDLIVARLQQDPPRNVEGSVYDFVAEGIEEQAEYLKRYHDISRLVMNDPSEKNLNELAKVQEQLDHHNLWQLENRINEVLAQLGLDPNVALSSLSGGWLRKAALGRALVSNPRVLLLDEPTNHLDIETIDWLEGFLKTFNGTIIFISHDRSFIRNMATRIVDLDRGKLVTYPGNYDQYLLEKEEALRVEELQNAEFDRKLAQEEVWIRQGIKARRTRNEGRVRALKAMRRERGERREVMGTAKMQVEEASRSGKIVFEMEDVCYQVNGKQLVKDFSAQVLRGDKIALIGPNGCGKTTLLKLMLGQLQADSGRIHVGTKLEVAYFDQHRAELDPDKTVMDNLAEGKQEVMVNGKPRHVLGYLQDFLFHPKRAMTPVRALSGGERNRLLLARLFLKPSNLLILDEPTNDLDVETLELLEELIDSYQGTVLLVSHDRQFVDNTVTECWIFEGGGKIGRYVGGYHDARGQQEQYVALKQPAVKKTEEAAAAKAETVKRSSSKLSYKLQRELEQLPQLLEDLEAKLEALQTQVADASFFSQPHEQTQKVLADMAAAEQELEQAFERWEYLEALKNGG | 4.79 ± 0.63 h | 5.82 ± 0.35 h | 10.4 ± 1.5 h | 4.37 ± 0.087 h | 5.1 ± 0.79 h | 4.73 ± 0.16 h | 4.8 ± 0.17 h | 4.38 ± 0.62 h | 3.41 ± 0.18 h | 7.15 ± 0.13 h | 5.42 ± 0.33 h | 9.51 ± 0.35 h
3 | MSLKEKTQSLFANAFGYPATHTIQAPGRVNLIGEHTDYNDGFVLPCAIDYQTVISCAPRDDRKVRVMAADYENQLDEFSLDAPIVAHENYQWANYVRGVVKHLQLRNNSFGGVDMVISGNVPQGAGLSSSASLEVAVGTVLQQLYHLPLDGAQIALNGQEAENQFVGCNCGIMDQLISALGKKDHALLIDCRSLGTKAVSMPKGVAVVIINSNFKRTLVGSEYNTRREQCETGARFFQQPALRDVTIEEFNAVAHELDPIVAKRVRHILTENARTVEAASALEQGDLKRMGELMAESHASMRDDFEITVPQIDTLVEIVKAVIGDKGGVRMTGGGFGGCIVALIPEELVPAVQQAVAEQYEAKTGIKETFYVCKPSQGAGQC [P0A6T3] | 5.59 ± 2 h | 5.71 ± 0.33 h | 12.7 ± 2 h | 4.53 ± 0.13 h | 6.35 h | 5.09 ± 1.2 h | 5.29 ± 0.75 h | 4.573 ± 0.04 h | 3.22 ± 0.53 h | 7.14 ± 0.81 h | 6.11 ± 0.1 h | 11.9 ± 0.71 h
4 | MSLLNVPAGKDLPEDIYVVIEIPANADPIKYEIDKESGALFVDRFMSTAMFYPCNYGYINHTLSLDGDPVDVLVPTPYPLQPGSVIRCRPVGVLKMTDEAGEDAKLVAVPHSKLSKEYDHIKDVNDLPELLKAQIAHFFEHYKDLEKGKWVKVEGWENAEAAKAEIVASFERAKNK [P0A7A9] | 5.91 ± 0.78 h | 5.73 ± 0.47 h | 10.6 ± 0.65 h | 4.34 ± 0.4 h | 4.83 ± 0.22 h | 5.09 ± 0.49 h | 6.36 ± 0.52 h | 5.358 ± 0.02 h | 3.48 ± 0.71 h | 8.63 ± 0.47 h | 5.65 ± 1.4 h | 14.4 ± 1.1 h
5 | MSLNMFWFLPTHGDGHYLGTEEGSRPVDHGYLQQIAQAADRLGYTGVLIPTGRSCEDAWLVAASMIPVTQRLKFLVALRPSVTSPTVAARQAATLDRLSNGRALFNLVTGSDPQELAGDGVFLDHSERYEASAEFTQVWRRLLQRETVDFNGKHIHVRGAKLLFPAIQQPYPPLYFGGSSDVAQELAAEQVDLYLTWGEPPELVKEKIEQVRAKAAAHGRKIRFGIRLHVIVRETNDEAWQAAERLISHLDDETIAKAQAAFARTDSVGQQRMAALHNGKRDNLEISPNLWAGVGLVRGGAGTALVGDGPTVAARINEYAALGIDSFVLSGYPHLEEAYRVGELLFPLLDVAIPEIPQPQPLNPQGEAVANDFIPRKVAQS | 5.43 ± 0.79 h |  |  |  |  |  |  |  |  |  |  | 
6 | MSLPFLRTLQGDRFFQLLILVGIGLSFFVPFAPKSWPAAIDWHTIITLSGLMLLTKGVELSGYFDVLGRKMVRRFATERRLAMFMVLAAALLSTFLTNDVALFIVVPLTITLKRLCEIPVNRLIIFEALAVNAGSLLTPIGNPQNILIWGRSGLSFAGFIAQMAPLAGAMMLTLLLLCWCCFPGKAMQYHTGVQTPEWKPRLVWSCLGLYIVFLTALEFKQELWGLVIVAAGFALLARRVVLSVDWTLLLVFMAMFIDVHLLTQLPALQGVLGNVSHLSEPGLWLTAIGLSQVISNVPSTILLLNYVPPSLLLVWAVNVGGFGLLPGSLANLIALRMANDRRIWWRFHLYSIPMLLWAALVGYVLLVILPAN |  |  |  |  |  |  |  |  |  | 9.39 h |  | 
7 | MSLSRRQFIQASGIALCAGAVPLKASAAGQQQPLPVPPLLESRRGQPLFMTVQRAHWSFTPGTRASVWGINGRYLGPTIRVWKGDDVKLIYSNRLTENVSMTVAGLQVPGPLMGGPARMMSPNADWAPVLPIRQNAATLWYHANTPNRTAQQVYNGLAGMWLVEDEVSKSLPIPNHYGVDDFPVIIQDKRLDNFGTPEYNEPGSGGFVGDTLLVNGVQSPYVEVSRGWVRLRLLNASNSRRYQLQMNDGRPLHVISGDQGFLPAPVSVKQLSLAPGERREILVDMSNGDEVSITCGEAASIVDRIRGFFEPSSILVSTLVLTLRPTGLLPLVTDSLPMRLLPTEIMAGSPIRSRDISLGDDPGINGQLWDVNRIDVTAQQGTWERWTVRADEPQAFHIEGVMFQIRNVNGAMPFPEDRGWKDTVWVDGQVELLVYFGQPSWAHFPFYFNSQTLEMADRGSIGQLLVNPVP | 6.39 ± 0.28 h | 6.047 ± 0.037 h | 11.19 ± 0.06 h | 6.13 ± 0.41 h | 6.3 ± 0.19 h | 6.17 ± 0.57 h | 6.21 ± 0.34 h | 6.12 ± 0.66 h | 3.28 ± 0.037 h | 13.5 ± 0.45 h | 5.88 ± 0.35 h | 12.5 ± 0.35 h
8 | MSMIKSYAAKEAGGELEVYEYDPGELRPQDVEVQVDYCGICHSDLSMIDNEWGFSQYPLVAGHEVIGRVVALGSAAQDKGLQVGQRVGIGWTARSCGHCDACISGNQINCEQGAVPTIMNRGGFAEKLRADWQWVIPLPENIDIESAGPLLCGGITVFKPLLMHHITATSRVGVIGIGGLGHIAIKLLHAMGCEVTAFSSNPAKEQEVLAMGADKVVNSRDPQALKALAGQFDLIINTVNVSLDWQPYFEALTYGGNFHTVGAVLTPLSVPAFTLIAGDRSVSGSATGTPYELRKLMRFAARSKVAPTTELFPMSKINDAIQHVRDGKARYRVVLKADF | 5.793 ± 0.025 h | 6.43 ± 1.3 h | 11 ± 1.4 h | 5.42 ± 0.12 h | 5.68 ± 0.17 h |  | 5.65 ± 0.11 h | 5.22 ± 1.4 h | 2.17 ± 0.36 h | 10.8 ± 0.24 h | 5.84 ± 0.26 h | 11.9 ± 0.73 h
9 | MSMSTSTEVIAHHWAFAIFLIVAIGLCCLMLVGGWFLGGRARARSKNVPFESGIDSVGSARLRLSAKFYLVAMFFVIFDVEALYLFAWSTSIRESGWVGFVEAAIFIFVLLAGLVYLVRIGALDWTPARSRRERMNPETNSIANRQR [P0AFC3] | 7.01 ± 0.28 h |  | 13 ± 0.5 h | 6.22 ± 0.18 h |  | 6.15 ± 1.1 h |  | 6.317 ± 0.023 h | 3.72 ± 0.32 h |  | 6.293 ± 0.024 h | 14.3 ± 2.1 h
10 | MSMVETAPSKIQVRNLNFYYGKFHALKNINLDIAKNQVTAFIGPSGCGKSTLLRTFNKMFELYPEQRAEGEILLDGDNILTNSQDIALLRAKVGMVFQKPTPFPMSIYDNIAFGVRLFEKLSRADMDERVQWALTKAALWNETKDKLHQSGYSLSGGQQQRLCIARGIAIRPEVLLLDEPCSALDPISTGRIEELITELKQDYTVVIVTHNMQQAARCSDHTAFMYLGELIEFSNTDDLFTKPAKKQTEDYITGRYG [P0AAH0] | 5.28 ± 0.14 h |  | 9.16 ± 0.51 h | 4.81 ± 0.24 h |  | 4.78 ± 0.28 h | 5.5 ± 0.56 h | 4.68 ± 0.39 h | 3.05 ± 0.094 h | 9.09 ± 0.47 h | 5.49 ± 0.53 h | 12.1 ± 0.36 h
11 | MSNKPFIYQAPFPMGKDNTEYYLLTSDYVSVADFDGETILKVEPEALTLLAQQAFHDASFMLRPAHQKQVAAILHDPEASENDKYVALQFLRNSEIAAKGVLPTCQDTGTAIIVGKKGQRVWTGGGDEETLSKGVYNTYIEDNLRYSQNAALDMYKEVNTGTNLPAQIDLYAVDGDEYKFLCVAKGGGSANKTYLYQETKALLTPGKLKNFLVEKMRTLGTAACPPYHIAFVIGGTSAETNLKTVKLASAHYYDELPTEGNEHGQAFRDVQLEQELLEEAQKLGLGAQFGGKYFAHDIRVIRLPRHGASCPVGMGVSCSADRNIKAKINREGIWIEKLEHNPGQYIPQELRQAGEGEAVKVDLNRPMKEILAQLSQYPVSTRLSLTGTIIVGRDIAHAKLKELIDAGKELPQYIKDHPIYYAGPAKTPAGYPSGSLGPTTAGRMDSYVDLLQSHGGSMIMLAKGNRSQQVTDACHKHGGFYLGSIGGPAAVLAQQSIKHLECVAYPELGMEAIWKIEVEDFPAFILVDDKGNDFFQQIVNKQCANCTK | 5.77 ± 0.79 h | 5.65 ± 0.69 h | 9.34 ± 1.8 h | 4.28 ± 0.48 h |  | 4.08 ± 0.13 h | 4.19 ± 0.42 h | 3.86 ± 0.25 h | 3.08 ± 0.042 h | 5.98 ± 0.31 h | 5.73 h | 11.2 ± 0.73 h
12 | MSNLLGPRDANGIPVPMTVDESIASMKASLLKKIKRSAYVYRVDCGGCNGCEIEIFATLSPLFDAERFGIKVVPSPRHADILLFTGAVTRAMRSPALRAWQSAPDPKICISYGACGNSGGIFHDLYCVWGGTDKIVPVDVYIPGCPPTPAATLYGFAMALGLLEQKIHARGPGELDEQPAEILHGDMVQPLRVKVDREARRLAGYRYGRQIADDYLTQLGQGEEQVARWLEAENDPRLNEIVSHLNHVVEEARIR | 5.31 h |  |  |  |  |  |  |  |  |  |  | 
13 | MSNLSLDFSDNTFQPLAARMRPENLAQYIGQQHLLAAGKPLPRAIEAGHLHSMILWGPPGTGKTTLAEVIARYANADVERISAVTSGVKEIREAIERARQNRNAGRRTILFVDEVHRFNKSQQDAFLPHIEDGTITFIGATTENPSFELNSALLSRARVYLLKSLSTEDIEQVLTQAMEDKTRGYGGQDIVLPDETRRAIAELVNGDARRALNTLEMMADMAEVDDSGKRVLKPELLTEIAGERSARFDNKGDRFYDLISALHKSVRGSAPDAALYWYARIITAGGDPLYVARRCLAIASEDVGNADPRAMQVAIAAWDCFTRVGPAEGERAIAQAIVYLACAPKSNAVYTAFKAALADARERPDYDVPVHLRNAPTKLMKEMGYGQEYRYAHDEANAYAAGEVYFPPEIAQTRYYFPTNRGLEGKIGEKLAWLAEQDQNSPIKRYR [P0AAZ4] | 5.65 ± 0.3 h | 5.39 ± 0.29 h | 9.37 ± 0.81 h | 3.82 ± 0.099 h | 4.56 ± 0.49 h | 4.91 ± 1.5 h | 4.562 ± 0.028 h | 3.65 ± 0.14 h | 3.02 ± 0.14 h | 5.11 ± 0.23 h | 5.07 ± 0.082 h | 9.954 ± 0.019 h
